Conditions: ubiquitination at K45

AMBRA1: K45R
degradation_or_half_life: decreases
